Assay results from US20230203202A1 (DRAGONFLY THERAPEUTICS, published 2023).
Residue numbers refer to the chain shown, from its start. Where two headings read alike, the source gives them in different places.

Key:
[1] = target: T1, human 5T4 on the cell surface (human, UniProt Q13641 32-420); assay: cell-based or functional assay
T1 sequence (looked up): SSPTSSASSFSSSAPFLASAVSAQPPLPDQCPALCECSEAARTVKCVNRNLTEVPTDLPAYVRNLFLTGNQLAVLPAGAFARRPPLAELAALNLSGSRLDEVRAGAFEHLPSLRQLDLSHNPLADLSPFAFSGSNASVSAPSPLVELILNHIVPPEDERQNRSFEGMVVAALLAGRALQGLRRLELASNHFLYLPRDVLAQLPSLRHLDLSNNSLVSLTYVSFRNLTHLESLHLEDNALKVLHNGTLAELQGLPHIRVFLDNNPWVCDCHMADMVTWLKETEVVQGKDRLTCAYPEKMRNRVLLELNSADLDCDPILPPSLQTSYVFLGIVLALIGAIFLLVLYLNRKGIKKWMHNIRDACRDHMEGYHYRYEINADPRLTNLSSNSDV

[2] = target: T1, human 5T4 on the cell surface; assay: flow cytometry on 5T4+ H1975 cells
[3] = target: T1, human 5T4 on the cell surface; assay: flow cytometry on H1975 cells, FOB
[4] = target: T1, human 5T4 on the cell surface; assay: flow cytometry on H1975 cells, FOB; remark: listed apart in the source

B1: 10F10 multispecific binding protein (F0) (bispecific antibody, V domains shown)
VH: EVQLQESGGGLVKPGGSRRLSCAASRFTFSDFGMHWVRQAPEKGLEWIAYISSGSSTIYYADTVKGRFTISRDNAKNTLFLQMTSLRSEDTAMYYCASSQSYYRGTLDYWGQGTSVTVSS
VL: DIVLTQSPASLAVTLGQRATISCRASQSVTTSNYNYMHWFHQKPGQPPKLLIKFASNLESGVPARFSGSGSGTDFTLNIHPVEEEDIATYYCQHSWEIPWTFGGGTKLEIK
With B1 the “lysis of H1975 cells by KHYG-CD16V cells, EC50” value [1] was 0.059 nM, the EC50 [2] was 3.4 nM and the “Max (FOB)” value [2] was 17.9 fold over background.

B2: 8E06 multispecific binding protein (F0) (bispecific antibody, V domains shown)
VH: EVQLQESGAEMVRPGASVKLSCKASGYTFTSYWMHWVKQRPGQGLEWIGKIDSSDSKTQYNQKFKDKATLTVDKSSITVYMELNSLTSEDSAVYYCARGGYLWFAYWGQGTLVTVSA
VL: B1 VL with L4M, T14S, T30S, N33T, N35S, F40Y, H41Q, P47S, K53T, F54Y
notes: also called 08E06
For B2, the “lysis of H1975 cells by KHYG-CD16V cells, EC50” value [1] was 0.51 nM and the EC50 [2] was greater than 12 nM.

B3: AB1015 (antibody, V domains shown)
VH: EVQLVESGGGLVKPGGSLRLSCAASGFTFSDYGMHWVRQAPGKGLEWVSYISSGSSTFYYADTVKGRFTISRDNAKNSLYLQMNSLRAEDTAVYYCGSSQSYYRGTIDYWGQGTTVTVSS
VL: DIQLTQSPSSLSASVGDRVTITCRASQGVSTSTYTYLHWFQQKPGKAPKLLIKFASNLESGVPSRFSGSGSGTDFTLTISSLQPEDFATYYCQHSWEIPWTFGGGTKVEIK
notes: member of the group m33
B3: binds [3].

B4: AB1017 (antibody, V domains shown)
VH: B3 VH with A23E, V48L, S49A, I107M
VL: B3 VL with L37M
notes: member of the group m33
B4: binds [4].

B5: AB1019 (antibody, V domains shown)
VH: B3 VH with A23E, V48L, S49A, I107M
VL: B3 VL with L37V
notes: member of the group m33
B5: binds [4].

B6: AB1016 (antibody, V domains shown)
VH: B3 VH
VL: B3 VL with L37V
notes: member of the group m33
B6: binds [3].

B7: AB1018 (antibody, V domains shown)
VH: B3 VH with A23E, V48L, S49A, I107M
VL: B3 VL
notes: member of the group m33
B7: binds [4].
